Target: SpβL1 Namat (nicotinamide ADP-ribose transferase), untagged (SpβL1 phage)
Assay: mass photometry; Refeyn mass photometry; 50 nM Namat after gel filtration

stoichiometry N: 2
Substance: SpβL1 Namat (nicotinamide ADP-ribose transferase), untagged (enzyme)

From article PMC12774641
